Positions count from the first letter of the chain named.
B1: cr028 (nucleic acid)
guide: GTCCAAGAGCTAAGCTGGAAACAGCATAGCAAGTTTAAATAAGGCTAGTCCGTTATCAACTTGAAAAAGTGGCACCGAGTCGGTGCT
modifications: listed as DNA, chemistry not fully specified
B2: cr475 (nucleic acid)
guide: B1 guide with C3T, C4T, A41T, A65T
modifications: listed as DNA, chemistry not fully specified
B3: cr773 (nucleic acid)
guide: B1 guide with C3T, C4T, T34G, A47T, A64G
modifications: listed as DNA, chemistry not fully specified
B4: cr079 (nucleic acid)
guide: B1 guide with T2G, C3T
modifications: listed as DNA, chemistry not fully specified
B5: cr248 (nucleic acid)
guide: B1 guide with C3T, C4T, G43C, C51G
modifications: listed as DNA, chemistry not fully specified
B6: cr130 (nucleic acid)
guide: B1 guide with C3T, C4T, A32T, G33T
modifications: listed as DNA, chemistry not fully specified
B7: cr424 (nucleic acid)
guide: B1 guide with C3T, C4T, G43C, C51G, A74G, C75T, G83A, T84C
modifications: listed as DNA, chemistry not fully specified
B8: cr663 (nucleic acid)
guide: B1 guide with C3T, C4T, T34G, G77T, C81A
modifications: listed as DNA, chemistry not fully specified
B9: cr310 (nucleic acid)
guide: B1 guide with C3T, C4T, A41T, A66T
modifications: listed as DNA, chemistry not fully specified
B10: cr613 (nucleic acid)
guide: B1 guide with C3T, C4T, G43C, C45G, G48C, C51G
modifications: listed as DNA, chemistry not fully specified
B11: cr628 (nucleic acid)
guide: B1 guide with C3T, C4T, C73T, G77A, C81T, G85A
modifications: listed as DNA, chemistry not fully specified
B12: cr445 (nucleic acid)
guide: B1 guide with C3T, C4T, C75T, G77C, C81T, G83C
modifications: listed as DNA, chemistry not fully specified
B13: cr949 (nucleic acid)
guide: B1 guide with C3T, C4T, T34G, A65T
modifications: listed as DNA, chemistry not fully specified
B14: cr704 (nucleic acid)
guide: B1 guide with C3T, C4T, T70C
modifications: listed as DNA, chemistry not fully specified
B15: cr332 (nucleic acid)
guide: B1 guide with C3T, C4T, G33T, T34A
modifications: listed as DNA, chemistry not fully specified
B16: cr204 (nucleic acid)
guide: B1 guide with C3T, C4T, T34C, G44T, C50A
modifications: listed as DNA, chemistry not fully specified
B17: cr860 (nucleic acid)
guide: B1 guide with C3T, C4T, T34C, G43A, C51T
modifications: listed as DNA, chemistry not fully specified
B18: cr795 (nucleic acid)
guide: B1 guide with C3T, C4T, G43T, C51A, G72T, A74T, T84A, C86A
modifications: listed as DNA, chemistry not fully specified
B19: cr187 (nucleic acid)
guide: B1 guide with C3T, C4T, T34G, G77A, C81T
modifications: listed as DNA, chemistry not fully specified
B20: cr524 (nucleic acid)
guide: B1 guide with C3T, C4T, A64T
modifications: listed as DNA, chemistry not fully specified
B21: cr067 (nucleic acid)
guide: B1 guide with G1C, C3T, C4G
modifications: listed as DNA, chemistry not fully specified
B22: cr750 (nucleic acid)
guide: B1 guide with C3T, C4T, T34G, C60T, G69A
modifications: listed as DNA, chemistry not fully specified
B23: cr509 (nucleic acid)
guide: B1 guide with C3T, C4T, G43C, C51G, C75A, G83T
modifications: listed as DNA, chemistry not fully specified
B24: cr328 (nucleic acid)
guide: B1 guide with C3T, C4T, G33C, A74C, T84G
modifications: listed as DNA, chemistry not fully specified
B25: cr103 (nucleic acid)
guide: B1 guide with C3T, C4T, A32T, G52T, T80G
modifications: listed as DNA, chemistry not fully specified
B26: cr111 (nucleic acid)
guide: B1 guide with C3T, C4T, G33C, C76A, G82T
modifications: listed as DNA, chemistry not fully specified
B27: cr024 (nucleic acid)
guide: B1 guide with G1T, C3G, C4T
modifications: listed as DNA, chemistry not fully specified
B28: cr268 (nucleic acid)
guide: B1 guide with C3T, C4T, T34G, C76A, G82T
modifications: listed as DNA, chemistry not fully specified
B29: cr649 (nucleic acid)
guide: B1 guide with C3T, C4T, G33C, C45T, G48A
modifications: listed as DNA, chemistry not fully specified
B30: cr081 (nucleic acid)
guide: B1 guide with G1A, C3T, C4A
modifications: listed as DNA, chemistry not fully specified
B31: cr993 (nucleic acid)
guide: B1 guide with C3T, C4T, G33C, A59T, T70A
modifications: listed as DNA, chemistry not fully specified
B32: cr044 (nucleic acid)
guide: B1 guide with C3G, C4T, A8T
modifications: listed as DNA, chemistry not fully specified
B33: cr665 (nucleic acid)
guide: B1 guide with C3T, C4T, G33C, G72C, C86G
modifications: listed as DNA, chemistry not fully specified
B34: cr337 (nucleic acid)
guide: B1 guide with C3T, C4T, G43C, C51G, A65G
modifications: listed as DNA, chemistry not fully specified
B35: cr052 (nucleic acid)
guide: B1 guide with G1A, C3G, C4T
modifications: listed as DNA, chemistry not fully specified
B36: cr054 (nucleic acid)
guide: B1 guide with C3T, C4T, G7C, A8C
modifications: listed as DNA, chemistry not fully specified
B37: cr587 (nucleic acid)
guide: B1 guide with C3T, C4T, G44C
modifications: listed as DNA, chemistry not fully specified
B38: cr191 (nucleic acid)
guide: B1 guide with C3T, C4T, G33C, C75G, G83C
modifications: listed as DNA, chemistry not fully specified
B39: cr250 (nucleic acid)
guide: B1 guide with C3T, C4T, T49A, G71C, T80G
modifications: listed as DNA, chemistry not fully specified
B40: cr280 (nucleic acid)
guide: B1 guide with C3T, C4T, G33C, G72T, C86A
modifications: listed as DNA, chemistry not fully specified
B41: cr528 (nucleic acid)
guide: B1 guide with C3T, C4T, A31C, A32G, G33C
modifications: listed as DNA, chemistry not fully specified

System: K562 CRISPRi cells
Assay: Constant region variant library pooled growth screen, K562
Type: cell-based, human
Method in brief: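 Growth screens in K562 CRISPRi cells were harvested 4-8 days post-selection at >2000× library coverage. Each variant's phenotype was referenced to the unmodified constant region with the same targeting sequence.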

[1] = sgRNA constant region variant, activity relative to unmodified constant region cr995, mean CRISPRi activity
[2] = sgRNA constant region variants, activity relative to the original, un-modified constant region cr995

Row | Molecule | Mean relative activity [1] | Mean relative activity [2]
1 | B1 | 0.01375 | 
2 | B2 | 0.0113 | 
3 | B3 | 0.01327 | 
4 | B4 | 0.01223 | 
5 | B5 | 0.01369 | 
6 | B6 | 0.009507 | 
7 | B7 | 0.01319 | 
8 | B8 | 0.01081 | 
9 | B9 | 0.01363 | 
10 | B10 | 0.01125 | 
11 | B11 |  | 1.033
12 | B12 | 0.01078 | 
13 | B13 | 0.01022 | 
14 | B14 |  | 1.033
15 | B15 | 0.01145 | 
16 | B16 | 0.01236 | 
17 | B17 | 0.01022 | 
18 | B18 | 0.009911 | 
19 | B19 | 0.00928 | 
20 | B20 |  | 1.032
21 | B21 | 0.01012 | 

Row | Molecule | Mean relative activity [1] | Mean relative activity [2]
22 | B22 | 0.01125 | 
23 | B23 | 0.01061 | 
24 | B24 | 0.009384 | 
25 | B25 | 0.01259 | 
26 | B26 | 0.013 | 
27 | B27 | 0.01205 | 
28 | B28 | 0.01166 | 
29 | B29 | 0.01138 | 
30 | B30 | 0.009207 | 
31 | B31 | 0.00969 | 
32 | B32 | 0.01046 | 
33 | B33 | 0.01294 | 
34 | B34 | 0.01313 | 
35 | B35 | 0.009238 | 
36 | B36 |  | 1.032
37 | B37 | 0.009805 | 
38 | B38 | 0.01358 | 
39 | B39 | 0.01012 | 
40 | B40 | 0.01273 | 
41 | B41 | 0.01243 | 

From patent US20220259593A1, “CONTROL OF MAMMALIAN GENE DOSAGE USING CRISPR” (The Regents of the University of California, priority 2019, published 2022)
